In article PMC5449627:

Molecular target: AGO2 (Argonaute 2) (UniProt Q9UKV8)
Test: single-molecule FRET
Conditions: guide 5' phosphate; internal amino-C6 U18; single-molecule FRET on immobilized biotinylated target RNA; 100 nM AUF1 where added; buffer, salt, pH and temperature not in the material

Sequence of AGO2 (Argonaute 2) (Q9UKV8 whole entry): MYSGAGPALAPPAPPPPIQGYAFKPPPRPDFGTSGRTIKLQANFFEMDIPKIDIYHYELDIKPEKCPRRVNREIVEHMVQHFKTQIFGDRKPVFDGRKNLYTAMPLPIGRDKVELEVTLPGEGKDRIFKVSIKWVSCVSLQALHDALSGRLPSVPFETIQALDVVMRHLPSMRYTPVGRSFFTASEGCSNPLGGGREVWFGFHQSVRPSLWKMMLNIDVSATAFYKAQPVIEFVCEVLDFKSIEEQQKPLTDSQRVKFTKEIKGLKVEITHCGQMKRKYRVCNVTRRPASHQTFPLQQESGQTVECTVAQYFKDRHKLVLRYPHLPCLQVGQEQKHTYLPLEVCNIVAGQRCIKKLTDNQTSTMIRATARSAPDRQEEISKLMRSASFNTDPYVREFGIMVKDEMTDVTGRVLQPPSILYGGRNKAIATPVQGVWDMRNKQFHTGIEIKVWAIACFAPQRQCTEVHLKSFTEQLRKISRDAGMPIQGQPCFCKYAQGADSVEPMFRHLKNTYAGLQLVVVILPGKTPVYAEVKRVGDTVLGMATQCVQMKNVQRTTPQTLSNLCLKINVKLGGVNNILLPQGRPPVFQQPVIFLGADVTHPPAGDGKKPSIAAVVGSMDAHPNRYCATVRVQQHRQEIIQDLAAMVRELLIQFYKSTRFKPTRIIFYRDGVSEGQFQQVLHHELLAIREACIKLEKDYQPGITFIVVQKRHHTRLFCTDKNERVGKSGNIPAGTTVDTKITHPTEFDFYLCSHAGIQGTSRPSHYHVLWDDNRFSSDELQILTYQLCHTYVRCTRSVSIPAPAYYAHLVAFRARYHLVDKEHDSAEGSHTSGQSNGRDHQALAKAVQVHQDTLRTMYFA

Sequence | binding signal (% decrease of binding rate)
UGAGGUAGUAGGUUGUGUGGUU / UAACCACACUGUUGACUACCUCACCCCCCCCCCCCCCCC [let-7b guide / POLR2D RNA with let-7b WT] | 42
UGAGGUAGUAGGUUGUGUGGUU / UAACCACACUGUUGACUACCUCAUUCCUGGUUUUUGGCCUCCACAUCAUCUUUUUUCUUAAUAUUUCAUCCCCCCCCCCCCCCCC [let-7b guide / POLR2D RNA with let-7b WT and AUF1 site] | 78
